# Measured values published in PMC4842275.
# Biological target: HIV-1 capsid of the wild type HIV-1GFP vector (HIV-1)
substance,measurement,value
engineered human TRIM5alpha fused with CypA at position S322 (T5Cyp) (from UniProt Q9C035 1-322),restriction of HIV-1GFP infection (GFP+ cells by FACS 48 h after infection) in Jurkat T5Cyp cells compared to H126Q cells,10 fold
